{
  "source": "paper PMC11014985",
  "about": "“TCTP regulates genotoxic stress and tumorigenicity via intercellular vesicular signaling”",
  "key": {"Ded1 (DEAD-box helicase)": {"molecular_target": "Ded1 (DEAD-box helicase) (yeast, UniProt P06634 1-604)", "sequence (P06634 whole entry)": "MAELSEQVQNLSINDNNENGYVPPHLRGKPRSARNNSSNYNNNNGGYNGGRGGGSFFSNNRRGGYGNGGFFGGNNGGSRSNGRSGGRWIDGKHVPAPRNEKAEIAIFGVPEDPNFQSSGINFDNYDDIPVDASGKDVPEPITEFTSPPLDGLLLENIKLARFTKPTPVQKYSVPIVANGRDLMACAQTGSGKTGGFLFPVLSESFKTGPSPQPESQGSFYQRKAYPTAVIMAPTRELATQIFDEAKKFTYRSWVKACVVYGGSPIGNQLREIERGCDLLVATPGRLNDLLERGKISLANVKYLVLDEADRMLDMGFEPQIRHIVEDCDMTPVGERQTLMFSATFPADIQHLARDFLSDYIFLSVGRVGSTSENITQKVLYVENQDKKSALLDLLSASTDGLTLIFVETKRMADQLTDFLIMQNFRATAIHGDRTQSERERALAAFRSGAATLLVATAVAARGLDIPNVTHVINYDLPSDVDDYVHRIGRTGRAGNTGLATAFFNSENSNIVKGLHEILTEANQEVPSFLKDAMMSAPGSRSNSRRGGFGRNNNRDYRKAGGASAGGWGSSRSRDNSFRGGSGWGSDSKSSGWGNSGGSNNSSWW", "assay": "EMSA; 50 nM RNA; positive control; AMP-PNP; EMSA: RNA01 at pH 7.5, 6% native PAGE at 4 C; let-7c-5p 50 nM, proteins preincubated 20 min then 25 min on ice, ATP or AMP-PNP (5 mM), NativePAGE 3-12% Bis-Tris", "conditions": "protein: recombinant; label: 5'-Cy5; single strand"}, "TCTP [1]": {"molecular_target": "T1, TCTP (UniProt P13693 1-172)", "T1 sequence": "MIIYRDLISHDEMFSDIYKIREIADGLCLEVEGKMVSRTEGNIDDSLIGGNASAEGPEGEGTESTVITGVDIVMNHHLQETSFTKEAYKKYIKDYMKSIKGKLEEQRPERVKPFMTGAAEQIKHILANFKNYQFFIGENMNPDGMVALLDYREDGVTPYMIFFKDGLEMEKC", "assay": "EMSA; 50 nM RNA, increasing TCTP; pH 7.5; EMSA: RNA01 at pH 7.5, 6% native PAGE at 4 C; let-7c-5p 50 nM, proteins preincubated 20 min then 25 min on ice, ATP or AMP-PNP (5 mM), NativePAGE 3-12% Bis-Tris", "conditions": "protein: recombinant; label: 5'-Cy5; single strand"}, "DDX3-WT": {"molecular_target": "DDX3-WT (human, UniProt O00571 1-662)", "sequence (O00571 whole entry)": "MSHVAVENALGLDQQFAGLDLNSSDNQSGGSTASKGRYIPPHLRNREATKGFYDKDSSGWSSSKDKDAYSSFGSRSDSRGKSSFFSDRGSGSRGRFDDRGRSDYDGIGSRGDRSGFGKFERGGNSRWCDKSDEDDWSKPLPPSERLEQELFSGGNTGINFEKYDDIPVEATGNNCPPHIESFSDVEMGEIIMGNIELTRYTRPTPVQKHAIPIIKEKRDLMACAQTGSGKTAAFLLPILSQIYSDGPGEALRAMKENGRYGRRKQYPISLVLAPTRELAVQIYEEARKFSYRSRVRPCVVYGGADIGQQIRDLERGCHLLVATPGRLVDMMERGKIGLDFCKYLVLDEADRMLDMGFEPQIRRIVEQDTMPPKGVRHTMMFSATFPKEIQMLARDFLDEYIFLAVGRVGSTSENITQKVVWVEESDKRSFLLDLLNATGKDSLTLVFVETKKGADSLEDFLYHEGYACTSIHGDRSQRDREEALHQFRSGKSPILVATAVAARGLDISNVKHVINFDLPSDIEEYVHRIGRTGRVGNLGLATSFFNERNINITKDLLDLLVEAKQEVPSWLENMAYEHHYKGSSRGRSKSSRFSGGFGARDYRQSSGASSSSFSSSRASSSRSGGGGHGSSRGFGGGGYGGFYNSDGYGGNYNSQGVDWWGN", "assay": "EMSA; 300 nM DDX3, 50 nM RNA; ATP or AMP-PNP (nucleotide not specified for outcome); EMSA: RNA01 at pH 7.5, 6% native PAGE at 4 C; let-7c-5p 50 nM, proteins preincubated 20 min then 25 min on ice, ATP or AMP-PNP (5 mM), NativePAGE 3-12% Bis-Tris", "conditions": "protein: recombinant; single strand"}, "TCTP [2]": {"molecular_target": "T1, TCTP", "assay": "EMSA; 500 nM TCTP, 50 nM RNA; ATP or AMP-PNP; EMSA: RNA01 at pH 7.5, 6% native PAGE at 4 C; let-7c-5p 50 nM, proteins preincubated 20 min then 25 min on ice, ATP or AMP-PNP (5 mM), NativePAGE 3-12% Bis-Tris", "conditions": "protein: recombinant; single strand"}},
  "data": [
    {"binder": "UCAUACUUUUCUUUUCUUUUCCAUC (ssRNA)", "note": "[RNA01]", "values": [
      {"measurement": "binding result", "setting": "Ded1 (DEAD-box helicase)", "result": "binds"},
      {"measurement": "binding result", "setting": "TCTP [1]", "result": "no binding"}
    ]},
    {"binder": "UGAGGUAGUAGGUUGUAUGGUU (ssRNA)", "note": "[let-7c-5p]", "values": [
      {"measurement": "binding result", "setting": "DDX3-WT", "result": "binds"},
      {"measurement": "binding result", "setting": "TCTP [2]", "result": "no binding"}
    ]}
  ]
}
